Experimental data: patent US9005962B2, “Regionalised endoderm cells and uses thereof” (The University Court of the University of Edinburgh, priority 2007, dated 2015)

What was measured:
Hex^RS ES cells [1] = assay: ADE (H+C+) induction, serum-free suspension (aggregation) culture, flow cytometry; assay type: cell-based; settings: added during the first two days; serum-free, aggregation and monolayer (Table 7)
Description: For ADE induction under serum-free conditions in suspension culture, ES cells were seeded onto non-coated 10 cm Petri dishes at 5×10^3 cells/ml in N2B27 culture medium supplemented with 10 ng/ml Bmp4 and 20 ng/ml activin A. Following 2 days of culture the resulting EBs were harvested as above and replated on non-coated Petri dishes at the same density in SF03 culture medium (ref Tada 2005) supplemented with 20 ng/ml activin A and 20 ng/ml EGF. The media was replaced 2 days later and then every 3 days for the duration of the experiment. For some experiments 10 ng/ml Fgf4 (R&D), 10 ng/ml Bmp4, 20 ng/ml Activin A, 1×10^−5M all-trans retinoic acid, 100 ng/ml PD173074 (Sigma), 20 ng/ml EGF and 3 μM CHIR99021 were added to the culture at the indicated timepoints.
FITC-conjugated rat anti-CD184 (CXCR4), FITC-conjugated rat anti-CD31 and FITC conjugated rat anti-CD45 were purchased from BD Pharmingen. EBs generated under various different differentiation conditions were dissociated by treatment with cell dissociation buffer (PBS based) (GIBCO-BRL). Cells were washed in PBS supplemented with 10% FCS (FB) and resuspended at a maximum density of 5×10^6 cells/ml. For surface staining 200 μl of cells were plated in a V shape 96 well polystyrene plate (Sterilin) in PBS supplemented with 1% serum of the species in which the antibody was manufactured. The FITC-conjugated antibody or a FITC-conjugated isotype control was added at a 1:100 dilution. Cells were incubated in the dark for 20 mins, washed 3 times with FB and resuspended in FB supplemented with Topro3-iodide (Invitrogen) to exclude dead cell from the analysis. Cells were analysed using a FACS Calibur (BD Biosciences) or sorted using a MoFlo MLS flow cytometer (DakoCytomation). […]
FITC-conjugated rat anti-CD184 (Cxcr4), FITC-conjugated rat anti-CD31 and FITC conjugated rat anti-CD45 were purchased from BD Pharmingen. […] Cells were analysed using a FACS Calibur (BD Biosciences) or sorted using a MoFlo MLS flow cytometer (DakoCytomation).

Hex^RS ES cells [2] = assay: ADE (H+C+) induction, two-step suspension (embryoid body) differentiation with serum day 0-2, flow cytometry for RS and Cxcr4; assay type: cell-based, mouse
Description: ADE was induced under serum-containing conditions using a 2-step protocol. ES cells were seeded onto non-coated 10 cm petri dishes (sterilin) at a density of 5×10^3 cells/ml in Glasgow minimum essential medium (G-MEM; GIBCO-BRL) supplemented with 10% fetal calf serum (FCS), 0.1 mM nonessential amino acids (GIBCO-BRL), 1 mM sodium pyruvate, 2 mM glutamine and 0.1 mM 2-mercaptoethanol (2ME). Following 2 days of culture the resulting embryoid bodies (EBs) were harvested by centrifugation at 500 rpm for 1 min and replated on 10 cm non-coated petri dishes at the same density in N2B27 culture medium (StemCellSciences) supplemented with 20 ng/ml activin A (R&D). The media was replaced 2 days later and then every 3 days for the duration of the experiment. For some experiments 20 ng/ml EGF, 10 ng/ml Bmp4, 20 ng/ml activin A (R&D), 1×10^−5M all-trans retinoic acid (Sigma) and 3 μM CHIR99021 (a gift from StemCellSciences) were added to the culture at the indicated timepoints.
(§1) FITC-conjugated rat anti-CD184 (CXCR4), FITC-conjugated rat anti-CD31 and FITC conjugated rat anti-CD45 were purchased from BD Pharmingen. EBs generated under various different differentiation conditions were dissociated by treatment with cell dissociation buffer (PBS based) (GIBCO-BRL). Cells were washed in PBS supplemented with 10% FCS (FB) and resuspended at a maximum density of 5×10^6 cells/ml. For surface staining 200 μl of cells were plated in a V shape 96 well polystyrene plate (Sterilin) in PBS supplemented with 1% serum of the species in which the antibody was manufactured. The FITC-conjugated antibody or a FITC-conjugated isotype control was added at a 1:100 dilution. Cells were incubated in the dark for 20 mins, washed 3 times with FB and resuspended in FB supplemented with Topro3-iodide (Invitrogen) to exclude dead cell from the analysis. Cells were analysed using a FACS Calibur (BD Biosciences) or sorted using a MoFlo MLS flow cytometer (DakoCytomation).
Mouse ES cells were cultured according to Li et al., (1995). ADE was induced under serum-containing conditions using a 2-step protocol. ES cells were seeded onto non-coated 10 cm petri dishes (Sterilin) at a density of 5×10^3 cells/ml in GMEM supplemented as described in Li et al., (1995) except in the absence of LIF. EBs were harvested after two days by centrifugation and replated in N2B27 medium (StemCellSciences) supplemented with 20 ng/ml activin A (R&D) and 20 ng/ml EGF (R&D). This media was replaced again two days later. 10 ng/ml BMP4, 20 ng/ml activin A (R&D) and 1×10^−5M all-trans retinoic acid (Sigma) were added where indicated.
(§2) FITC-conjugated rat anti-CD184 (Cxcr4), FITC-conjugated rat anti-CD31 and FITC conjugated rat anti-CD45 were purchased from BD Pharmingen. Cells were stained with Topro3-iodide (Invitrogen) to exclude dead cells from the analysis. Cells were analysed using a FACS Calibur (BD Biosciences) or sorted using a MoFlo MLS flow cytometer (DakoCytomation).

Hex^RS ES cells [3] = assay: ADE (H+C+) induction, serum-free adherent monolayer culture, flow cytometry, RT-PCR and immunostaining; assay type: cell-based; settings: monolayer culture
Description: For ADE induction under serum-free conditions in adherent monolayer culture, ES cells were seeded onto gelatin coated 3 cm 6 well dishes (Iwaki) at a density of 1×10^4 cells/ml in N2B27 medium (StemCellSciences) supplemented with 10 ng/ml Bmp4, 20 ng/ml activin A and 10 ng/ml Fgf4. Following 2 days of culture the media was replaced with SF03 culture medium (Tada 2005) supplemented with 20 ng/ml activin A, 10 ng/ml Fgf4 and 20 ng/ml EGF. The media was replaced 2 days later and then every 3 days for the duration of the experiment. For some experiments 1×10^−5M all-trans retinoic acid, 100 ng/ml PD173074 and 3 μM CHIR99021 were added to the culture at the indicated timepoints.
as §1
Total RNA was prepared from a minimum of 1×10^4 cells from sorted cell fractions, EBs, monolayer differentiated cells or ES cells using Trizol reagent (Invitrogen). 1 μg of RNA was used as a template for cDNA synthesis using Superscript III (Invitrogen). Real-time RT-PCR was performed using a LightCycler 480 (Roche) and LightCycler 480 SYBR Green 1 Master (Roche). The following cycling conditions were used: denaturation: 95° C. 5 sec, amplification: 95° C. 5 sec, 58° C. 10 sec, 72° C. 20 sec (45 cycles), 81° C. 1 sec, melt: 95° C. 1 sec, 65° C. 10 sec, 95° C. −ramp 5 C per sec continuous, cool: […] 10 sec. Standard curves were generated from plasmid. Samples were normalized to β-actin or TATA-box binding protein (TBP) expression levels.
Sorted cells were seeded onto gelatin coated 24 well dishes (Iwaki). Adherence of cells to the substrate was enhanced by centrifugation at 1200 rpm for 3 mins. Sorted cells, monolayer differentiated cells and ES cells were washed in PBS, fixed in 4% paraformaldehyde for 10 mins and permeabilised by washing in PBS supplemented with 0.1% Triton X (PBST). Cells were treated with a blocking reagent (3% serum of same species as secondary antibody, 1% BSA in PBST) for 15 min before incubation with the primary antibody at 4° C. overnight. The cells were washed with PBST and incubated with the appropriate fluorescence-tagged secondary antibody for 2 hr at room temperature. The cells were washed with PBST and DAPI added during the final wash. The following primary antibodies were used, all are anti-mouse: anti-Oct3/4, anti-HNF-3β (Foxa2), anti-HNF-4α (Santa Cruz), anti-Cer11 (R&D), anti-E-cadherin (Takara Bio Inc) anti-alpha fetoprotein (NeoMarkers), anti-albumin (Bethyl laboratories inc). Anti-Pdx1 was a gift from P. Serup. […]
as §2

B1: Bmp4: bone morphogenetic protein, 10 ng/ml (protein, UniProt P12644 293-408, looked up)
Bone morphogenetic protein 4: SPKHHSQRARKKNKNCRRHSLYVDFSDVGWNDWIVAPPGYQAFYCHGDCPFPLADHLNSTNHAIVQTLVNSVNSSIPKACCVPTELSAISMLYLDEYDKVVLKNYQEMVVEGCGCR
- total number of surviving cells at the end of the 7 day differentiation (Hex^RS ES cells [1]): significantly increased
- induction of the RS positive population (Hex^RS ES cells [2]; added either at day 0 or day 3 (Table 2)): completely blocked
- CXCR4 induction (Hex^RS ES cells [2]; added either at day 0 or day 3, data not shown): without effecting
- H+C+ percentage (Hex^RS ES cells [3]): increased
